Measured values taken from patent US5945513.

Target: soluble recombinant human gp39 (CD8-gp39 fusion protein) (murine; human)

## CD40-Ig (modified by L234F, L235E and G237A in the immunoglobulin domain) (from UniProt P25942) (Fc fusion)
  inhibition of shgp39/IF5 or shgp39/PMA driven tonsillar B cell proliferation: 50 % inhibition
